Source: US20160000910A1 (AC IMMUNE S A, published 2016)
One block for each binder: values may come before it.

Columns and labels:
[1] = target: Aβ1-42 peptide (Thioflavin T assay); assay: cell-based or functional assay
[2] = target: T1, biotinylated Aβ17-40 peptide (biotinylated (position not given)); assay: ELISA, biotinylated peptide (Anaspec) on streptavidin plate, 10 µg/ml mAb
T1 construct: Peptide from Anaspec
T1 peptide: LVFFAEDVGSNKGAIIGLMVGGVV
Text: (§1) The peptides in the peptide library were composed of 8, 9 or 10-mer aa peptides. A biotinylated complete Aβ1-42 peptide (human sequence) was used as positive control (Bachem, Bubendorf, Switzerland). In addition, longer peptides covering Aβ1-28, Aβ17-40, Aβ1-40 and Aβ1-42 were used to define the broader region to which these antibodies may bind. These 4 peptides were also biotinlyated (manufactured by Anaspec and purchased from ANAWA Trading SA, Switzerland). Epitope mapping was done according to the manufacturer's (Mimotopes) instructions. Briefly, Streptavidin coated plates (NUNC, Roskilde, Denmark) were blocked with 0.1% BSA in PBS overnight at 4° C. After washing with PBS-0.05% Tween 20, plates were coated for 1 hour at RT with the different peptides from the library, diluted in 0.1% BSA, 0.1% Sodium Azide in PBS to a final concentration of 10 μM. […] Plates were washed again and incubated with alkaline phosphatase conjugated goat anti mouse IgG (Jackson Immunresearch West Grove, Pa., USA) for 1 h at RT. After final washing, plates were incubated with phosphatase substrate (pNPP, Sigma-Aldrich, St Louis, Mo., USA) and read after 3 hours of incubation at 405 nm using an ELISA plate reader.

[3] = target: T2, biotinylated Aβ1-40 peptide (biotinylated (position not given)); assay: as above
T2 construct: Peptide from Anaspec; also called Ab1-40
Text: as §1

[4] = target: Aβ1-42 library peptide 29; assay: peptide library ELISA, 10 µg/ml mAb
Text: as §1

[5] = target: Aβ1-42 library peptide 21; assay: peptide library ELISA, 10 µg/ml mAb
Text: as §1

[6] = target: Aβ1-42 library peptide 14; assay: peptide library ELISA, 10 µg/ml mAb
Text: as §1

[7] = target: Aβ1-42 library peptide 19; assay: peptide library ELISA, 10 µg/ml mAb
Text: as §1

Aβ1-42 library peptide 3 = assay: peptide library ELISA, 10 µg/ml mAb
Text: as §1

[8] = target: Aβ1-42 library peptide 33; assay: peptide library ELISA, 10 µg/ml mAb
Text: as §1

[9] = target: Aβ1-42 library peptide 24; assay: peptide library ELISA, 10 µg/ml mAb
Text: as §1

Aβ1-42 library peptide 8 = assay: peptide library ELISA, 10 µg/ml mAb
Text: as §1

Aβ1-42 library peptide 1 = assay: peptide library ELISA, 10 µg/ml mAb
Text: as §1

[10] = target: Aβ1-42 library peptide 13; assay: peptide library ELISA, 10 µg/ml mAb
Text: as §1

[11] = target: Aβ1-42 library peptide 17; assay: peptide library ELISA, 10 µg/ml mAb
Text: as §1

[12] = target: Aβ1-42 library peptide 16; assay: peptide library ELISA, 10 µg/ml mAb
Text: as §1

Aβ1-42 library peptide 6 = assay: peptide library ELISA, 10 µg/ml mAb
Text: as §1

[13] = target: Aβ1-42 library peptide 18; assay: peptide library ELISA, 10 µg/ml mAb
Text: as §1

Aβ1-42 library peptide 2 = assay: peptide library ELISA, 10 µg/ml mAb
Text: as §1

[14] = target: Aβ1-42 library peptide 32; assay: peptide library ELISA, 10 µg/ml mAb
Text: as §1

[15] = target: Aβ1-42 library peptide 27; assay: peptide library ELISA, 10 µg/ml mAb
Text: as §1

[16] = target: Aβ1-42 library peptide 28; assay: peptide library ELISA, 10 µg/ml mAb
Text: as §1

[17] = target: Aβ1-42 library peptide 15; assay: peptide library ELISA, 10 µg/ml mAb
Text: as §1

Aβ1-42 library peptide 9 = assay: peptide library ELISA, 10 µg/ml mAb
Text: as §1

[18] = target: Aβ1-42 library peptide 20; assay: peptide library ELISA, 10 µg/ml mAb
Text: as §1

[19] = target: Aβ1-42 library peptide 22; assay: peptide library ELISA, 10 µg/ml mAb
Text: as §1

[20] = target: Aβ1-42 library peptide 11; assay: peptide library ELISA, 10 µg/ml mAb
Text: as §1

Aβ1-42 library peptide 5 = assay: peptide library ELISA, 10 µg/ml mAb
Text: as §1

[21] = target: Aβ1-42 library peptide 26; assay: peptide library ELISA, 10 µg/ml mAb
Text: as §1

[22] = target: Aβ1-42 library peptide 10; assay: peptide library ELISA, 10 µg/ml mAb
Text: as §1

Aβ1-42 library peptide 7 = assay: peptide library ELISA, 10 µg/ml mAb
Text: as §1

[23] = target: Aβ1-42 library peptide 12; assay: peptide library ELISA, 10 µg/ml mAb
Text: as §1

[24] = target: Aβ1-42 library peptide 31; assay: peptide library ELISA, 10 µg/ml mAb
Text: as §1

[25] = target: Aβ1-42 library peptide 23; assay: peptide library ELISA, 10 µg/ml mAb
Text: as §1

[26] = target: Aβ1-42 library peptide 30; assay: peptide library ELISA, 10 µg/ml mAb
Text: as §1

Aβ1-42 library peptide 4 = assay: peptide library ELISA, 10 µg/ml mAb
Text: as §1

[27] = target: Aβ1-42 library peptide 25; assay: peptide library ELISA, 10 µg/ml mAb
Text: as §1

[28] = target: T1, biotinylated Aβ17-40 peptide; assay: ELISA, biotinylated peptide on streptavidin plate
Text: as §1

[29] = target: T3, biotinylated complete Aβ1-42 peptide (human sequence) (human, biotinylated (position not given)); assay: peptide library ELISA, complete Aβ1-42 (Bachem) as positive control, 10 µg/ml mAb
T3 construct: Same peptide from two suppliers (1-42A Anaspec, 1-42B Bachem); the supplier is named under assay; also called Ab1-42; 1-42A (Anaspec)
Text: as §1

Aβ1-42 peptide (Thioflavin T assay), sequence (peptide, as listed by the source): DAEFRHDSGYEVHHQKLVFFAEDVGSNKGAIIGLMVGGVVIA
T3 sequence (peptide, as listed by the source): as above

disaggregation of pre-aggregated Aβ1-42, Thioflavin T fluorescence, antibody to Aβ1-42 molar ratio 1:10 [1]: 52% | disaggregation of pre-aggregated Aβ1-42, Thioflavin T fluorescence, antibody to Aβ1-42 molar ratio 1:100 [1]: 22% | inhibition of Aβ1-42 aggregation, Thioflavin T fluorescence, antibody to Aβ1-42 molar ratio 1:10 [1]: 69% | inhibition of Aβ1-42 aggregation, Thioflavin T fluorescence, antibody to Aβ1-42 molar ratio 1:100 [1]: 34% | O.D. after background subtraction (mean) [2]: 0.02 O.D. | O.D. after background subtraction (mean) [3]: 1.02 O.D. | O.D. [4]: 0.2 O.D. | O.D. [5]: 0.1 O.D. | O.D. [6]: 0.16 O.D. | O.D. [7]: 0.1 O.D. | O.D. (Aβ1-42 library peptide 3): 0.12 O.D. | O.D. [8]: 0.11 O.D. | O.D. [9]: 0.1 O.D. | O.D. (Aβ1-42 library peptide 8): 0.11 O.D. | O.D. (Aβ1-42 library peptide 1): 0.1 O.D. | O.D. [10]: 0.17 O.D. | O.D. [11]: 0.13 O.D. | O.D. [12]: 0.14 O.D. | O.D. (Aβ1-42 library peptide 6): 0.11 O.D. | O.D. [13]: 0.11 O.D. | O.D. (Aβ1-42 library peptide 2): 0.1 O.D. | O.D. [14]: 0.12 O.D. | O.D. [15]: 0.13 O.D. | O.D. [16]: 0.12 O.D. | O.D. [17]: 0.14 O.D. | O.D. (Aβ1-42 library peptide 9): 0.11 O.D. | O.D. [18]: 0.1 O.D. | O.D. [19]: 0.1 O.D. | O.D. [20]: 0.11 O.D. | O.D. (Aβ1-42 library peptide 5): 0.11 O.D. | O.D. [21]: 0.12 O.D. | O.D. [22]: 0.13 O.D. | O.D. (Aβ1-42 library peptide 7): 0.11 O.D. | O.D. [23]: 0.24 O.D. | O.D. [24]: 0.12 O.D. | O.D. [25]: 0.11 O.D. | O.D. [26]: 0.11 O.D. | O.D. (Aβ1-42 library peptide 4): 0.11 O.D. | O.D. [27]: 0.11 O.D. | binding result [28]: no binding (tested: 10 µg/ml)
B1: mouse monoclonal antibody ACI-11-Ab-9 (antibody, V domains shown)
VH: QVQLQQSDAELVKPGASVKISCKVSGYTFTDHTIHWMKQRPEQGLEWIGYIYPRDGSTKYNEKFKGKATLTADKSSSTAYMQLNSLTSEDSAVYFCARDYGYAFDYWGQGTTLTVSS
VL: QAVVTQESALTTSPGGTVILTCRSSTGAVTTSNYANWVQEKPDHLFTGLIGGTSNRAPGVPVRFSGSLIGDKAALTITGAQTEDDAMYFCALWYSTHYVFGGGTKVTVL
notes: also called clone FG1F9E4; DSM ACC2845

disaggregation of pre-aggregated Aβ1-42, Thioflavin T fluorescence, antibody to Aβ1-42 molar ratio 1:10 [1]: 54% | disaggregation of pre-aggregated Aβ1-42, Thioflavin T fluorescence, antibody to Aβ1-42 molar ratio 1:100 [1]: 18% | inhibition of Aβ1-42 aggregation, Thioflavin T fluorescence, antibody to Aβ1-42 molar ratio 1:10 [1]: 66% | inhibition of Aβ1-42 aggregation, Thioflavin T fluorescence, antibody to Aβ1-42 molar ratio 1:100 [1]: 30% | O.D. after background subtraction (mean) [2]: -0.02 O.D. | O.D. after background subtraction (mean) [3]: 0.62 O.D. | O.D. [4]: 0.11 O.D. | O.D. [5]: 0.09 O.D. | O.D. [6]: 0.12 O.D. | O.D. [7]: 0.1 O.D. | O.D. (Aβ1-42 library peptide 3): 0.11 O.D. | O.D. [8]: 0.11 O.D. | O.D. [9]: 0.1 O.D. | O.D. (Aβ1-42 library peptide 8): 0.1 O.D. | O.D. (Aβ1-42 library peptide 1): 0.1 O.D. | O.D. [10]: 0.15 O.D. | O.D. [11]: 0.12 O.D. | O.D. [12]: 0.14 O.D. | O.D. (Aβ1-42 library peptide 6): 0.1 O.D. | O.D. [13]: 0.1 O.D. | O.D. (Aβ1-42 library peptide 2): 0.1 O.D. | O.D. [14]: 0.11 O.D. | O.D. [15]: 0.12 O.D. | O.D. [16]: 0.11 O.D. | O.D. [17]: 0.1 O.D. | O.D. (Aβ1-42 library peptide 9): 0.1 O.D. | O.D. [18]: 0.1 O.D. | O.D. [19]: 0.1 O.D. | O.D. [20]: 0.11 O.D. | O.D. (Aβ1-42 library peptide 5): 0.1 O.D. | O.D. [21]: 0.12 O.D. | O.D. [22]: 0.1 O.D. | O.D. (Aβ1-42 library peptide 7): 0.1 O.D. | O.D. [23]: 0.21 O.D. | O.D. [24]: 0.11 O.D. | O.D. [25]: 0.1 O.D. | O.D. [26]: 0.11 O.D. | O.D. (Aβ1-42 library peptide 4): 0.1 O.D. | O.D. [27]: 0.11 O.D. | O.D. [29]: 0.69 O.D.
B2: mouse monoclonal antibody ACI-12-Ab-11 (antibody, V domains shown)
VH: B1 VH
VL: B1 VL
notes: also called clone FK2A6A6; DSM ACC2846
